The results in this text go back to US5574007A, “Polypeptide capable of interacting with thrombin” (Asahi Kasei Kogyo Kabushiki Kaisha, priority 1990, dated 1996).

One test concerns the target thrombin (Homo sapiens, UniProt P00734). Kind of test: Capability of binding to thrombin of thrombomodulin deletion polypeptides. As to conditions: expressed in COS-1 cells, purified.
Test [1] addresses T1, thrombin-catalyzed activation of protein C (Homo sapiens, UniProt P00734).
T1 construct: are added 50 μg/ml protein C, 5 nM thrombin and 5 nM of each of the purified polypeptides
In words: Activated protein C formation against reaction time with purified polypeptide (Example 4-(6)). Type of test: biochemical. On the procedure:
To 0.02M Tris-HCl buffer (pH 8.5) containing 0.1M NaCl, 0.5 mM CaCl2 and 10 mg/ml BSA are added 50 μg/ml protein C, 5 nM thrombin and 5 nM of each of the purified polypeptides of the present invention, and reacted at 37° C. To each of the reaction mixtures are added 300 μg/ml antithrombin III (manufactured and sold by Sigma Chemical Company, U.S.A.) and 5 mM EDTA to terminate the reaction. Then, the amount of the activated protein C produced by the reaction is determined by the method described in Example 1-(3) in which a synthetic substrate is used.

The target in test [2] is T2, thrombin-catalyzed conversion of fibrinogen to fibrin (Homo sapiens, UniProt P00734).
T2 construct: Then, 10 nM thrombin is added to the mixture
In words: Anticoagulating activity: clotting time of a fibrinogen solution. Particulars: 0 to 50 nM polypeptide, 10 nM thrombin; polypeptide from COS-1 or CHO cells. The test is classed as biochemical. On the procedure: The activity of each of the polypeptides of the present invention to inhibit the thrombin-catalyzed conversion of fibrinogen to fibrin so as to inhibit blood coagulation, is determined by measuring clotting time using Coagulometer KC-10A (manufactured and sold by Heinrich Amelung A.G., Germany). Illustratively stated, to 0.05M Tris-HCl buffer (pH 7.5) containing 5 mM CaCl2 and 0.1M NaCl is added 3.0 μg of fibrinogen (Fraction I, manufactured and sold by Sigma Chemical Company, U.S.A.). To the resultant mixture is added 0 to 50 nM of each of the purified polypeptides of the present invention. Then, 10 nM thrombin is added to the mixture in such an amount that the total amount of the mixture becomes 0.4 ml, and then the coagulation time of the mixture is measured.

Test [3] has as its system thrombin-catalyzed platelet aggregation. Kind of test: Platelet aggregation-inhibiting activity (Platelet Rich Plasma, HEMA TRACER IV). The test is classed as cell-based. As to conditions: polypeptide in molar amount equal to or more than thrombin; polypeptide from COS-1 or CHO cells. On the procedure:
The activity of each of the polypeptides of the present invention to inhibit the thrombin-catalyzed platelet aggregation is evaluated using platelet aggregation measuring apparatus HEMA TRACER IV (manufactured and sold by NIKO Bioscience, Inc., Japan). Measurement is carried out according to the manual attached thereto. When 40 μl of a 20 NIH unit/ml thrombin solution (manufactured and sold by SIGMA Chemical Co., U.S.A., T 6759) is added to 180 μl of a Platelet Rich Plasma (PRP) platelet solution (3×10^5 cells/μl) and incubated, the aggregation of platelets occurs. […] The aggregation of platelets is determined on the basis of the transparency, assuming the transparency of Platelet Poor Plasma (PPP) solution as 100%. The ratio of platelet aggregation is plotted against the incubation time (0 min: the time when thrombin or a mixture of thrombin and one of the polypeptides is added to the PRP solution). It is confirmed that the platelet aggregation is inhibited when one of the polypeptides of the present invention is added.

Test [4] addresses T1, thrombin-catalyzed activation of protein C. In words: Activity to promote the activation of protein C (Example 9-(4)). The test is classed as biochemical. On the procedure: With respect to the polypeptide purified in Example 9-(3), the activity to promote the activation of protein C is measured according to the following method. That is, 10 μl of a peptide solution (10 nM), 10 μl of thrombin (15 nM), 10 μl of protein C (3.2 μM), 10 μl of 10×Assay buffer [0.5M Tris HCl (pH 7.5) containing 1% BSA, 1M NaCl and 20 mM CaCl2 ] and 60 μl of distilled water are mixed together. The mixture is reacted at 37° C. for one hour, and antithrombin III and hepalin are added at final concentrations of 100 nM and lu/ml, respectively, thereby stopping the reaction. To measure the concentration of activated protein C, the concentration of AMC ([…]) liberated from a 200 μM substrate of Boc-Leu-Ser-Thr-Arg-MCA in a buffer containing 0.05M Tris HCl (pH 8.0) and 0.1M CsCl is measured at an excitation wavelength of 380 nm and a measuring wavelength of 440 nm.

B1: polypeptide comprised of the 407th to 480th amino acid residues of human thrombomodulin: deletion polypeptide expressed in COS-1 cells using vector pSV2 (protein)
chain: FCNQTACPADCDPNTQASCECPEGYILDDGFICTDIDECENGGFCSGVCHNLPGTFECICGPDSALVRHIGTDC
With B1, in the test with thrombin, the “capability of binding to thrombin (in words)” value is given as “had the capability of binding to thrombin”.

B2: E456GlaAsp: polypeptide from PTTM2 CHO cells transfected with pSV2PTTMM6 (prothrombin leader), gamma-carboxyglutamic acid confirmed (protein)
chain: PVEDPCFRANCEYQCQPLNQTSYLCVCAEGFAPIPHEPHRCQMFCNQTACPADCDPNTQASCECPEGYILDDGFICTDIDECENGGFCSGVCHNLPGTFECICGPDSALVRHIGTDC
modifications: gamma-carboxyglutamic acid (Gla) in place of the Glu inserted before Asp367 (third residue of the purified polypeptide, where Edman degradation detected no amino acid); Gla confirmed by amino acid anal
On to B2, for which the “amount of activated protein C with reaction time (in words)” value in test [1] (5 nM polypeptide, 5 nM thrombin, 50 μg/ml protein C, 37° C., polypeptide from COS-1 or CHO cells) is given as “increased with the lapse of reaction time”. In addition, the “amount of protein C activated, larger than in the presence of E456Glu” value in test [1] (30 min after the polypeptide addition) came out at 80%. In addition, the “clotting time of fibrinogen solution against amount of polypeptide (in words)” value in test [2] is listed as “the longer the clotting time”. In test [3], the “thrombin-catalyzed platelet aggregation (in words)” value was “inhibited”.

B3: polypeptide comprised of the 366th to 442nd amino acid residues of human thrombomodulin: deletion polypeptide expressed in COS-1 cells using vector pSV2 (protein)
chain: VDPCFRANCEYQCQPLNQTSYLCVCAEGFAPIPHEPHRCQMFCNQTACPADCDPNTQASCECPEGYILDDGFICTDI
Regarding B3, the “capability of binding to thrombin (in words)” value in the test with thrombin is listed as “had the capability of binding to thrombin”.

B4: E45: polypeptide of the 367th to 442nd amino acid residues of human thrombomodulin (pSV2TMD9) (protein)
chain: DPCFRANCEYQCQPLNQTSYLCVCAEGFAPIPHEPHRCQMFCNQTACPADCDPNTQASCECPEGYILDDGFICTDI
For B4, the “activity relative to that of the 114-amino acid polypeptide” value in test [4] is on record as “about one-tenth”. In test [4] (peptide solution 10 nM, thrombin 15 nM, protein C 3.2 μM, 37° C., one hour), the “production of activated protein C” value turned out to be 1.7 pmol.
